Columns and labels:
[1] = molecular target: p53as (alternatively spliced p53) (Mus musculus) (UniProt P02340); assay: cell_activity
p53 (wild type) = p53 (wild type) (UniProt P02340); assay: cell_activity
[2] = CAT reporter, human Saos-2 cells
[3] = luciferase reporter, mouse (10)1 cells

| Substance | activity [1, 2] [fold] | activity (p53 (wild type); [2]) [fold] | activity [1, 3] [fold] | activity (p53 (wild type); [3]) [fold] |
| --- | --- | --- | --- | --- |
| PG13 CAT reporter, 13 repeats of p53-binding site | 9 | 14 |  |  |
| WAF-1 promoter (WWP-1 luciferase) |  |  | 14 | 15 |
